Laboratory results as given in patent publication US11231420 (APTALOGIC, INC.).

Assays:
[1] = molecular target: T1, EBOV sGP (soluble glycoprotein) (Zaire ebolavirus, UniProt P60170 P60170:33-324); assay: filter; conditions: tags: His-tag; chain copies: 2; label: 5'-32P
[2] = molecular target: EBOV GP1,2 (UniProt Q05320 Q05320:33-650); assay: filter; conditions: label: 5'-32P
[3] = molecular target: T2, Lcn2 (lipocalin 2, uterocalin) (UniProt P11672 P11672:21-200); assay: filter; no serum; conditions: tags: His-tag; label: 5'-32P
T2 sequence: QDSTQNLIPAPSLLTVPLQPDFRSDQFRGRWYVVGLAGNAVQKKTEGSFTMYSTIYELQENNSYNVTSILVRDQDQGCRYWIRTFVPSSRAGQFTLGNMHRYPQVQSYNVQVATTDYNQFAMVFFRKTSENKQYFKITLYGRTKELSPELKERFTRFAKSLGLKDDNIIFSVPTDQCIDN

[4] = molecular target: T3, SUDV sGP (soluble glycoprotein) (Sudan ebolavirus, UniProt Q7T9E0 Q7T9E0:33-324); assay: filter; no serum; conditions: chain copies: 2; label: 5'-32P
T3 sequence: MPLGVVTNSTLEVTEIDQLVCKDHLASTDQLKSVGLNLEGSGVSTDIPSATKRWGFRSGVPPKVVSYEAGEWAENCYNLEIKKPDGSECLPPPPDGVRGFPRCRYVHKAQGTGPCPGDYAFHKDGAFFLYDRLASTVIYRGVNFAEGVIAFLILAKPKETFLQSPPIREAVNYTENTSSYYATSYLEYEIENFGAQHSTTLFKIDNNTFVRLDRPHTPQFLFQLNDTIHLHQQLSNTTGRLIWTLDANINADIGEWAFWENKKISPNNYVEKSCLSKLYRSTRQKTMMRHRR

[5] = molecular target: T4, Human serum albumin (HSA) (Homo sapiens, UniProt P02768 P02768:25-609); assay: filter; HSA up to 6 uM; conditions: label: 5'-32P
[6] = molecular target: T1, EBOV sGP (soluble glycoprotein); assay: filter; PBS with 5 mM Mg, pH 7; conditions: tags: His-tag; chain copies: 2; label: 5'-32P
[7] = molecular target: T2, Lcn2 (lipocalin 2, uterocalin); assay: filter; text says Lcn2 not bound by the aptamers; conditions: tags: His-tag; label: 5'-32P
[8] = molecular target: T4, Human serum albumin (HSA); assay: filter; HSA tested up to 6 uM; estimated; conditions: label: 5'-32P

T4 sequence (P02768 25-609, one chain of several): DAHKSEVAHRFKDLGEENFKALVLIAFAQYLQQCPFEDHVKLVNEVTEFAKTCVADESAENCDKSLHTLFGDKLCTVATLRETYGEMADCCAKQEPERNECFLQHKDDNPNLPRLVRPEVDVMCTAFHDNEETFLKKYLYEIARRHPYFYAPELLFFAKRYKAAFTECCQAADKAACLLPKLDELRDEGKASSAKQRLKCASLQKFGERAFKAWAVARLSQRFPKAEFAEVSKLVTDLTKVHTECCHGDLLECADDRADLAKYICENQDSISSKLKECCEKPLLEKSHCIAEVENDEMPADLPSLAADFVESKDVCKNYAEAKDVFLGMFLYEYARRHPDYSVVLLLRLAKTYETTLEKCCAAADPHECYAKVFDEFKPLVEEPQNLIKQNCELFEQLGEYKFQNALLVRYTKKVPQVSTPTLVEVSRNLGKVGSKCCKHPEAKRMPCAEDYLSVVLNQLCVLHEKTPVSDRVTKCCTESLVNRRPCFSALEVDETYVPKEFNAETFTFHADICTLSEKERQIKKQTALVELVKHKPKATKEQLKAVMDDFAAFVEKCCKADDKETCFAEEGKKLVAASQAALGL
T1 sequence (P60170 33-324, one chain of several): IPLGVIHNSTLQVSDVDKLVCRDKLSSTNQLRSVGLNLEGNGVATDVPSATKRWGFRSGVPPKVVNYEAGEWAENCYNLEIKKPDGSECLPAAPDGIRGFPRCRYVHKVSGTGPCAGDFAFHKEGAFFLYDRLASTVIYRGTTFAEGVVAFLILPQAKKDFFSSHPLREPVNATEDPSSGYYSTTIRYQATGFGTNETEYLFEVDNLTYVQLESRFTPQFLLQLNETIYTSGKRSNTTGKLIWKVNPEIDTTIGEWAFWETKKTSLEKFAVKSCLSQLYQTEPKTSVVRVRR
Chain of EBOV GP1,2 (Q05320 33-650, one chain of several): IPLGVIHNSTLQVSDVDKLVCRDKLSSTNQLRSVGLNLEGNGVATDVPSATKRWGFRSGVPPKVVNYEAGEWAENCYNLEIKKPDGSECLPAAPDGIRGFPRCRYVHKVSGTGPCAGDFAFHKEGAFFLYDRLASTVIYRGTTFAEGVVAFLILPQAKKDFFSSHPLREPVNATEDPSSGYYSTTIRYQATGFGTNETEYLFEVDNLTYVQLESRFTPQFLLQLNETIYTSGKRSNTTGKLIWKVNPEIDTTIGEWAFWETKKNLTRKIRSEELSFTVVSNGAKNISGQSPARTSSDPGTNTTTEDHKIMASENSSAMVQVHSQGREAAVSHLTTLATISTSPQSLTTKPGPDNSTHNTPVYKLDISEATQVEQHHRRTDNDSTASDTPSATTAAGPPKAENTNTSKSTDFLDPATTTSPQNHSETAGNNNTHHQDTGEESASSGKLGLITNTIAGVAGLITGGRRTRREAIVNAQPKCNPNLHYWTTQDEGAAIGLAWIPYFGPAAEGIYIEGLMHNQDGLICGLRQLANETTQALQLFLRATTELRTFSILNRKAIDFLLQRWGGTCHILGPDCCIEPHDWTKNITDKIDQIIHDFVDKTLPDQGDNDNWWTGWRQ

B1: Aptamer 6011 (ssDNA)
DNA: GCCTGTTGTGAGCCTCCTGTCGAACAACCACTCATATCTACTACATGACTTGCTCCATTCTGTTCTTTCTCTACGCATTGAGCGTTTATTCTTGTCTCCC
Kd [1]: 30 nM | binding result [2]: binds | binding result [3]: no binding | Kd [4]: 240 nM | binding result [5]: no binding

B2: Aptamer 6012 (ssDNA)
DNA: GCCTGTTGTGAGCCTCCTGTCGAACGTATTTCTTGCTTCCTTCCTTGCCGCGCACATTGCAGTATAAGTACCTGTCGTTGAGCGTTTATTCTTGTCTCCC
Kd [2]: 22 nM | binding result [5]: no binding | Kd [6]: 90 nM | binding result [7]: no binding

B3: Aptamer 6021 (ssDNA)
DNA: GCCTGTTGTGAGCCTCCTGTCGAAACTGTACTTCACTTTTACCTCCTCTTGCTCTTATCTGTACTATTGTCTCTCCGTTGAGCGTTTATTCTTGTCTCCC
binding result [5]: no binding | Kd [6]: 20 nM

B4: Aptamer 6022 (ssDNA)
DNA: GCCTGTTGTGAGCCTCCTGTCGAACCCTATCTTGTTCATGCTATTCTCAATATTTTCGGTTCACTTACCGTCTGCCTTTGAGCGTTTATTCTTGTCTCCC
Kd [6]: 100 nM | Kd [8]: ~100000 nM
